Here are results for two molecules from patent publication US20100210511A1, “Combination VEGFR2 Therapy with Temozolomide” (Bristol-Myers Squibb Company, priority 2009, published 2010).

In test [1] the test system is U87vIIILuc Glioblastoma Cells. Put plainly: Survival of NOD-SCID mice intracranially implanted with U87vIIILuc glioblastoma cells (Example 2). The format is in vivo. To be noted: intracranial U87vIIILuc; Compound 1 60 mg/kg IP three times per week; TMZ 34 mg/kg orally once daily for five days; 6 mice per group. The text has this:
(§1) Tumor Implantation. 9 week-old male NOD-SCID mice (Charles River Laboratories, Wilmington, Mass., USA) were anesthetized by 2% isoflurane. 5×10^4 U87vIIIluc tumor cells were implanted intracranially using the following stereotactic coordinates: 0.5 mm posterior, 2.5 mm lateral, and 3.5 mm intraparenchymal Animal care was kept in strict accordance with the institutional animal care and use committee of Massachusetts General Hospital.
(§2) Drug Administration. After randomization, 24 mice were divided into 4 groups (PBS, Compound 1 only, TMZ only, and Compound 1+TMZ) with 6 mice per group. PBS and Compound 1 (60 mg/kg) were delivered intraperitoneally in 200 ul IP volumes three times per week throughout the study until mice reached established criteria for euthanasia. Temozolomide (TMZ) was delivered orally (34 mg/kg) once daily for five days.
Results are shown in FIG. 1 (Compound 1=VEGFR2 specific inhibitor represented by SEQ ID NO: 4; Compound 2=TMZ; PBS=phosphate buffered saline (vehicle control)). The Y-axis indicates percent survival within each group over the length of the study Animals were followed for survival and sacrificed at the first sign of morbidity. Mean survival was 19, 29, 32 and 47 days for PBS, Compound 1, TMZ, and Compound 1+TMZ, respectively.

Test [2] relates to U87vIIILuc Glioblastoma Cells. Kind of test: Bioluminescent imaging (BLI) of U87vIIILuc tumor growth (Example 2). The conditions noted are these: Compound 1 60 mg/kg IP 3x/week, TMZ 34 mg/kg orally QD×5. The format is in vivo, NOD-SCID mice.
From the text: as §1, §2
Scanning Mice were anesthetized using 1-2% isoflurane before intraperitoneal injection of D-luciferin salt (150 mg/kg in 200 ul PBS; Caliper Life Sciences, Hopkinton Mass.). Bioluminescent imaging (BLI) was performed in a high sensitivity, cooled CCD camera (IVIS®, Xenogen) at five-minute intervals until peak values were recorded for all mice. BLI imaging was performed on days 6, 13, 20 and 26.
Image Analysis. Living Image® software (Xenogen) was used for image capture and signal quantification. Imaging schedules are described in the treatment groups. […]

Test [3] concerns CD31 (endothelial blood vessel formation marker). Kind of test: Immunohistochemical staining for CD31 on brain tissue sections (microvascular density). Format: in vivo, NOD-SCID mice. The conditions noted are these: Day 14 IHC analysis; compared to TMZ or PBS groups. Here is the method:
IHC staining for CD31 was performed on paraffin-embedded mouse brain tissue sections using Rat on mouse HRP-Polymer® (Biocare Medical). Briefly, sections were deparaffinized, rehydrated and treated with peroxidase (PEROXIDAZED 1, Biocare Medical) for 5 min at room temperature. To expose antigens, sections were treated with trypsin (CAREZYME 1®, Biocare Medical) for 10 min at 37° C. Unspecific protein was blocked by using Rodent Block M® (Biocare Medical) for 30 min. Thereafter, sections were incubated with rat monoclonal anti-CD31 (1:50, Biocare Medical) antibody for 2 h at room temperature. Subsequently, sections were incubated with Rat Probe® (Biocare Medical) for 15 min at room temperature, followed by incubation with Rat-Polymer HRP® (Biocare Medical) for 20 min at room temperature.
To visualize antigens in the tissue, DAB chromogen substrate (Biocare Medical) were used for 5 min Finally, sections were lightly counter-stained with Mayer's hematoxylin. For a negative control, the incubation step with primary antibody was omitted.
Immunohistochemical staining against CD31 (endothelial blood vessel formation marker), Ki67 (cell proliferation marker) or cleaved-caspase 3 (cellular apoptosis marker) was performed on paraffin-embedded brain tissue sections. […]

Test [4] has as its system U87vIIILuc Glioblastoma Cells. Put plainly: Survival in U87vIIILuc glioma model, triple administration with radiation therapy (Example 3). Format: in vivo, NOD-SCID mice. To be noted: radiation insensitive glioblastoma model; compared to RT alone or standard of care (TMZ+RT). Here is the method: Tumor implantation was performed as described above in Example 2.
Drug Administration. After randomization, 32 mice were divided into 4 groups (PBS, Radiation Therapy (RT) only, Compound 2 & RT, and Compound 1+Compound 2 & RT) with 8 mice per group. PBS and Compound 1 (60 mg/kg) were delivered intraperitoneally in 200 ul IP volumes three times per week throughout the study until mice reached established criteria for euthanasia. Compound 2 (TMZ) was delivered orally (34 mg/kg) once daily for five days. Compound 2 and RT treatments were initiated after the third dose of Compound 1.
Radiation Therapy. Mice were shielded in a custom-designed block with an aperture of 0.8 cm. After anesthetic induction (ketamine 118 mg/kg i.p.+xylazine 11.8 mg/kg i.p.), mice were irradiated to a total dose of 10 Gy in three daily fractions. 10 Gy were experimentally determined to be the highest tolerable dose for this model.
Results are shown in FIG. 5 (Compound 1=VEGFR2 specific inhibitor represented by SEQ ID NO: 4; Compound 2=TMZ; RT=Radiation Therapy; PBS=phosphate buffered saline (vehicle control)). The Y-axis indicates percent survival within each group over the length of the study Animals were followed for survival and sacrificed at the first sign of morbidity. Mean survival was 22, 23, 33 and 47 days for PBS, Radiation Therapy, Compound 2 & RT, and Compound 1+Compound 2 & RT, respectively.

In test [1], `Cn1nnc2c(C(N)=O)ncn2c1=O` [TMZ, temozolomide] showed a Mean survival of 32 days. Moreover, in test [2], the “Day 13 mean BLI values (photons/sec×10^6) increased by, fold” value is recorded as 6.17×10^1 fold.

B1: Compound 1: VEGFR2 specific inhibitor represented by SEQ ID NO: 4, 10Fn3-based, modified with a single branched 40 kDa PEG at the C-terminal cysteine (protein)
chain: GEVVAATPTSLLISWRHPHFPTRYYRITYGETGGNSPVQEFTVPLQPPTATISGLKPGVDYTITVYAVTDGRNGRLLSIPISINYRTEIDKPCQ
modifications: branched 40 kDa PEG at C-terminal cysteine
Take B1: in test [1], the Mean survival is reported as 29 days. The “Day 13 mean BLI values (photons/sec×10^6) increased by, fold” value in test [2] is on record as 1.79×10^2 fold. Besides, the “Blood vessel formation by CD31 staining” value in test [3] was “strongly reduced blood vessel formation”. The “Survival benefit (in words)” value in test [4] is listed as “can enhance survival”.
